Reference: patent US20190062453A1 (Hoffmann-La Roche, published 2019)

What was measured:
[1] = molecular target: T1, Cynom. DR5 (ECD)-AcTev-Fc-Avi (cynomolgus); test: biochemical ELISA, biotinylated antigen on streptavidin plate
T1 construct: also called cynomolgus DR5; cy DR5
Procedure: Antigen binding immunoassays were performed at room temperature on 384 well streptavidin coated microtiter plates (MicroCoat Biotechnologie GmbH) with PBS buffer supplemented with 0.05% Tween®-20 and 0.5% BSA (Roche Diagnostics GmbH). […] After 90 min incubation the plate was washed 6 times with PBST (phosphate buffered saline with 0.2% Tween®-20) and developed with BM Blue® HRP substrate solution (BM Blue®: 3,3′-5,5′-Tetramethylbenzidine, Roche Diagnostics GmbH) for 30 minutes at RT. Absorbance was measured at 370 nm. The blank value was defined without addition of supernatant.

[2] = molecular target: T2, human DR5 (monomeric Fc fusion) (human, UniProt O14763 56-207, biotinylated at the Avi tag in the ELISA (the tag is not in the letters)); test: as above
T2 construct: biotinylated in the ELISA; also called ECD-AcTev-hu Fc knob-Avi; not shown: AcTev site, hu Fc knob and Avi part of the fusion chain, and the separate Fc-hole chain

human DR5 ECD-Avi-his = molecular target: T3, human DR5 ECD-Avi-his (human, UniProt O14763 56-207); test: SPR, rabbit IgG captured by anti rabbit, monomeric DR5 injected
T3 construct: also called recombinant human DR5 (monomeric His-Avi fusion protein); monomeric human DR5
Procedure: The sample and system buffer was PBS-T (10 mM phosphate buffered saline including 0.05% Tween20) pH 7.4. The flow cell was set to 25° C.—and the sample block set to 12° C.—and primed with running buffer twice.
The dissociation phase was monitored for up to 300 sec and triggered by switching from the sample solution to running buffer. The surface was regenerated by 60 sec washing with a 100 mM H3PO4 (phosphoric acid) solution at a flow rate of 30 μl/min. Bulk refractive index differences were corrected by subtracting the response obtained from a blank surface. Buffer injections are also subtracted (=double referencing). For calculation of KD and other kinetic parameters the Langmuir 1:1 model was used.

[3] = molecular target: T4, Recombinant human DcR2-Fc (human, UniProt Q9UBN6 56-211); test: binding ELISA
T4 construct: bought for the phage antibodies; also called huDcR2Fc; human DcR2 (TNFRSF10D); not shown: Fc part of the chimera
T4 sequence (looked up): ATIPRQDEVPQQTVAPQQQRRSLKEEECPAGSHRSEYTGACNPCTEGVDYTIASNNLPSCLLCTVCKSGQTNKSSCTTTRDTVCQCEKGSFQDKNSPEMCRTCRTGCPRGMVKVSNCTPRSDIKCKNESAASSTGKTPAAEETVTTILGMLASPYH

[4] = molecular target: T5, Recombinant human DcR1-Fc (human, UniProt O14798 26-221); test: binding ELISA
T5 construct: bought; also called huDcR1Fc; human DcR1 (TNFRSF10C); Fc part of the bought chimera not given
T5 sequence (looked up): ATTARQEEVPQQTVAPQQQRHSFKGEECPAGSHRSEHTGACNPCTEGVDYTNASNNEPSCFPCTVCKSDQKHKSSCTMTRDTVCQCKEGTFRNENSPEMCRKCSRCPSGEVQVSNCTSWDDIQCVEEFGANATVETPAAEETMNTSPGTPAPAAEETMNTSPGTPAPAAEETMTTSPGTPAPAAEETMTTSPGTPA

[5] = molecular target: T6, murine DR5 ECD-AcTev-hu Fc-Avi (murine, UniProt Q9QZM4 53-153); test: binding ELISA
T6 construct: range 53-153; also called mouse DR5

Recombinant human OPG-Fc [6] = molecular target: T7, Recombinant human OPG-Fc (human, UniProt O00300 22-194); test: binding ELISA
T7 construct: bought; also called rhuOPGFc; human Osteoprotegerin; Fc part of the bought chimera not given
T7 sequence (looked up): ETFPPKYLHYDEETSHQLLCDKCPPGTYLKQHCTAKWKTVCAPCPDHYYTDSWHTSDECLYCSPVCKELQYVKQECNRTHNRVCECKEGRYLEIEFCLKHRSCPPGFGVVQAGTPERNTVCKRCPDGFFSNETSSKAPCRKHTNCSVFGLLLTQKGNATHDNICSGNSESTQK

Recombinant human DR4-Fc [7] = molecular target: T8, Recombinant human DR4-Fc (human, UniProt O00220 109-239); test: binding ELISA
T8 construct: bought; also called huDR4Fc; human DR4 (TNFRSF10A); Fc part of the bought chimera not given

[8] = molecular target: T6, murine DR5 ECD-AcTev-hu Fc-Avi; test: SPR, biotinylated DR5 on SA chip
[9] = molecular target: T4, Recombinant human DcR2-Fc; test: SPR, receptor-Fc on CM5 chip
[10] = molecular target: T5, Recombinant human DcR1-Fc; test: SPR, receptor-Fc on CM5 chip
Recombinant human OPG-Fc [11] = molecular target: T7, Recombinant human OPG-Fc; test: SPR, receptor-Fc on CM5 chip
Recombinant human DR4-Fc [12] = molecular target: T8, Recombinant human DR4-Fc; test: SPR, receptor-Fc on CM5 chip

B1: DR5TAA-0011 (antibody, V domains shown)
VH: QSVEESGGRLVTPGTPLTLTCTVSGFSISRYAMIWVRQAPGEGLEYIGFITSDSSAYYASWAKGRFTISKTSTTVDLKMTSPTTEDTATYFCARYTYSDGTDLWGPGTLVTVSS
VL: DIVMTQTPASVSEPVGGTVTIKCQASQSISTYLSWYQQKPGQPPKRLIYKASTLASGVPSRFKGSGSGTDFTLTIRDLECADAATYYCQPNSGIATYGAAFGGGTEVVVKG
notes: also called 174; clone 174
EC50 [1]: 4.3 ng/mL | EC50 [2]: 2 ng/mL | Kd (human DR5 ECD-Avi-his): 4.24 nM | binding result [3]: no binding | binding result [4]: no binding | binding result [5]: no binding | binding result (Recombinant human OPG-Fc [6]): no binding | binding result (Recombinant human DR4-Fc [7]): no binding

B2: 5E11 (antibody, V domains shown)
VH: not shown
VL: EIVLTQSPGTLSLSPGERATLSCRASQSVSSSYLAWYQQKPGQAPRLLIYGASSRATGIPDRFSGSGSGTDFTLTISRLEPEDFAVYYCQQGTTHPITFGQGTKVEIK
notes: Phage display Fab converted into hu IgG1, kappa light chain; also called clone 5E11
binding result [8]: no binding (tested: 500, 100 and 25 nM) | binding result [9]: no binding (tested: 500, 100 and 25 nM) | binding result [10]: no binding (tested: 500, 100 and 25 nM) | binding result (Recombinant human OPG-Fc [11]): no binding (tested: 500, 100 and 25 nM) | binding result (Recombinant human DR4-Fc [12]): no binding (tested: 500, 100 and 25 nM)

B3: 22E9 (antibody, IgG1, V domains shown)
VH: not shown
VL: EIVLTQSPGTLSLSPGERATLSCRASQSVSSSYLAWYQQKPGQAPRLLIYGASSRATGIPDRFSGSGSGTDFTLTISRLEPEDFAVYYCQQGSNQPVTFGQGTKVEIK
notes: hu IgG1
binding result [8]: no binding (tested: 500, 100 and 25 nM) | binding result [9]: no binding (tested: 500, 100 and 25 nM) | binding result [10]: no binding (tested: 500, 100 and 25 nM) | binding result (Recombinant human OPG-Fc [11]): no binding (tested: 500, 100 and 25 nM) | binding result (Recombinant human DR4-Fc [12]): no binding (tested: 500, 100 and 25 nM)

B4: 20F2 (antibody, IgG1, V domains shown)
VH: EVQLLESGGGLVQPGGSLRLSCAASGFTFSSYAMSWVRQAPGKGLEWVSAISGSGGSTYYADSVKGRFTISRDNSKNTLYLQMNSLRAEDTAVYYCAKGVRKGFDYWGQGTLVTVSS
VL: EIVLTQSPGTLSLSPGERATLSCRASQSVSSSYLAWYQQKPGQAPRLLIYGASSRATGIPDRFSGSGSGTDFTLTISRLEPEDFAVYYCQQGESPPPTFGQGTKVEIK
notes: hu IgG1; also called DR5 (20F2)
binding result [8]: no binding (tested: 500, 100 and 25 nM) | binding result [9]: no binding (tested: 500, 100 and 25 nM) | binding result [10]: no binding (tested: 500, 100 and 25 nM) | binding result (Recombinant human OPG-Fc [11]): no binding (tested: 500, 100 and 25 nM) | binding result (Recombinant human DR4-Fc [12]): no binding (tested: 500, 100 and 25 nM)

B5: 18F11 (antibody, IgG1, V domains shown)
VH: not shown
VL: EIVLTQSPGTLSLSPGERATLSCRASQSVSSSYLAWYQQKPGQAPRLLIYGASSRATGIPDRFSGSGSGTDFTLTISRLEPEDFAVYYCQQGQLPPITFGQGTKVEIK
notes: hu IgG1
binding result [8]: no binding (tested: 500, 100 and 25 nM) | binding result [9]: no binding (tested: 500, 100 and 25 nM) | binding result [10]: no binding (tested: 500, 100 and 25 nM) | binding result (Recombinant human OPG-Fc [11]): no binding (tested: 500, 100 and 25 nM) | binding result (Recombinant human DR4-Fc [12]): no binding (tested: 500, 100 and 25 nM)

B6: 21H3 (antibody, IgG1, V domains shown)
VH: not shown
VL: EIVLTQSPGTLSLSPGERATLSCRASQSVSSSYLAWYQQKPGQAPRLLIYGASSRATGIPDRFSGSGSGTDFTLTISRLEPEDFAVYYCQQGSQPPITFGQGTKVEIK
notes: hu IgG1
binding result [8]: no binding (tested: 500, 100 and 25 nM) | binding result [9]: no binding (tested: 500, 100 and 25 nM) | binding result [10]: no binding (tested: 500, 100 and 25 nM) | binding result (Recombinant human OPG-Fc [11]): no binding (tested: 500, 100 and 25 nM) | binding result (Recombinant human DR4-Fc [12]): no binding (tested: 500, 100 and 25 nM)

B7: DR5TAA-0006 (antibody, V domains shown)
VH: QSLEESGGRLVTPGTPLTLTCTASGFSLSSNHMSWVRQAPGKGLEWIGYIYAGSGSAYYASWAKGRFTISRTSTTVDLKMTSLTTEDTATYFCAGDAGSSYWEFNLWGPGTLVTVSS
VL: LVMTQTPSSTSEPVGGTVTIKCQASQSIGSSLSWYQQKPGQPPKLLIYHASTLASGVPSRFSGSRSGIQTTLTISGVQCDDAATYYCLGVADARRDDGFAFGGGTEVVVKG
notes: rabbit IgG; also called 058; clone 058
EC50 [1]: 1.6 ng/mL | EC50 [2]: 2 ng/mL | Kd (human DR5 ECD-Avi-his): 5.92 nM | binding result [3]: no binding | binding result [4]: no binding | binding result [5]: no binding | binding result (Recombinant human OPG-Fc [6]): no binding | binding result (Recombinant human DR4-Fc [7]): no binding

B8: DR5TAA-0013 (antibody, V domains shown)
VH: QSLEESGGRLVTPGTPLTLTCTASGFTISSYHMSWVRQAPGKGLEWIGYIYAGSASTWYASWVKGRFTISKTSTTVDLKMTSLTTEDTATYFCARDAGSSYWEFNLWGPGTLVTVSS
VL: LVMTQTPSSTSEPVGGTVTIKCQASQSIGSSLSWYQQTPGQPPKLLIYTASSLASSVPKRFSGSRSGTQFTLTISGVQCADAATYYCLGIDDVRRDDGFAFGGGTEVVVKG
notes: rabbit IgG; also called 298; clone 298
EC50 [1]: 2.1 ng/mL | EC50 [2]: 2.1 ng/mL | Kd (human DR5 ECD-Avi-his): 9.12 nM | binding result [3]: no binding | binding result [4]: no binding | binding result [5]: no binding | binding result (Recombinant human OPG-Fc [6]): no binding | binding result (Recombinant human DR4-Fc [7]): no binding

B9: DR5TAA-0010 (antibody, V domains shown)
VH: QSLEESGGRLVKPDETLTLTCTVSGFSLSSNAISWVRQAPGMGLEWIGIIGSSGYTYYASWAKGRFTVSKTSTTVDLEIASPTTEDTATYFCARGYSGASDYSFNLWGPGTLVTVSS
VL: AYDMTQTPDSVEVAVGGTVTIKCQASQTIGDALAWYQQKPGQRPNLLIYRTSTLASGVPSRFSGSGSGTHFTLTISGVECADAATYYCQQGATYNNVLNTFGGGTEVVVKG
notes: rabbit IgG; also called 481; clone 481
EC50 [1]: 8.7 ng/mL | EC50 [2]: 2.8 ng/mL | Kd (human DR5 ECD-Avi-his): 15.9 nM | binding result [3]: no binding | binding result [4]: no binding | binding result [5]: no binding | binding result (Recombinant human OPG-Fc [6]): no binding | binding result (Recombinant human DR4-Fc [7]): no binding

B10: DR5TAA-0016 (antibody, V domains shown)
VH: QSLEESGGRLVKPDETLTLTCTVSGFSLNNYAMSWVRQAPGKGLEWIGMINKYGTKYYATWTKGRATISKTSTTLDLEITSPTTEDTATYFCARVRYAGDDYAEWLDVWGQGILVTVSS
VL: DIVMTQTASPVSAAVGGTVTINCQASQSISSSYVSWYQQKPGQPPKLLIYKASTLASGVPSRFSGSGSGTQLSLTIRGVQCDDAATYYCLYGYSDVSSSEYVFGGGTEVVVRG
EC50 [1]: 2.7 ng/mL | EC50 [2]: 4 ng/mL | Kd (human DR5 ECD-Avi-his): 1.45 nM | binding result [3]: no binding | binding result [4]: no binding | binding result [5]: no binding | binding result (Recombinant human OPG-Fc [6]): no binding | binding result (Recombinant human DR4-Fc [7]): no binding

B11: DR5TAA-0019 (antibody, V domains shown)
VH: QSVEESGGRLVTPGTPLTLTCTVSGFSLSNYAMSWVRQAPGKGLEWIGIISSSGTTYYASWAKGRFTISKTSTTVDLKVTSPTTEDTATYFCARETYYGYSYAAGLWGPGTLVTVSS
VL: ALVMTQTPSSVSAAVGGTVTINCQASQNIYSNLAWFQQKPGQPPKLLIYETSKLASGVPSRFSGSGSGTEFTLTISDLECDDAATYYCQSSWHSISTDCAFGGGTEVVVKG
notes: rabbit IgG
EC50 [1]: 2.2 ng/mL | EC50 [2]: 3.5 ng/mL | Kd (human DR5 ECD-Avi-his): 0.675 nM | binding result [3]: no binding | binding result [4]: no binding | binding result [5]: no binding | binding result (Recombinant human OPG-Fc [6]): no binding | binding result (Recombinant human DR4-Fc [7]): no binding

B12: DR5TAA-0005 (antibody, V domains shown)
VH: QSLEESGGRLVTPGTPLTLTCTASGFSLSSAYMSWVRQAPGKGLEWIGYIYSGSGSTWYASWVKGRFTISKTSTTVDLKITSPTTEDTATYFCARGYSTMGDLWGPGTLVTVSS
VL: QVLTQTPSPVSAAVGGTVTINCQASQSVYNNRLAWYQQKPGQPPKLLIYLASTLASGVPSRFKGSGSGTQFTLTISDLQCDDAATYYCAGGYSGNINAFGGGTEVVVKG
notes: rabbit IgG; also called 039; clone 039
EC50 [1]: 3.7 ng/mL | EC50 [2]: 2.5 ng/mL | Kd (human DR5 ECD-Avi-his): 13.3 nM | binding result [3]: no binding | binding result [4]: no binding | binding result [5]: no binding | binding result (Recombinant human OPG-Fc [6]): no binding | binding result (Recombinant human DR4-Fc [7]): no binding
